US20110269227A1 (SHARP, published 2011)
Ends that are not written are not given here. * marks the point of attachment. Biotin = O=C1N[C@H]2[C@H](CS[C@H]2CCCCC(=O)*)N1; PEG (amino-terminated) = not defined here; cellulose membrane = not defined here

T1: human adiponectin (R&D Systems) (human, UniProt Q15848 19-244)
T1 construct: Bought protein; also called ACRP30; GBP28
T1 sequence (looked up): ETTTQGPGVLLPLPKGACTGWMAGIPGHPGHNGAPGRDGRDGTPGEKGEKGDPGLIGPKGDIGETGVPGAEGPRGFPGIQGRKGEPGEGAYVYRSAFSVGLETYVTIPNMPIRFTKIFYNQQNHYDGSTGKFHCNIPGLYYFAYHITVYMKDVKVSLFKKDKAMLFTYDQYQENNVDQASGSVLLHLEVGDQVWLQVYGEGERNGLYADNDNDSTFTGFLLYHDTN

B1: biotin-tagged peptide: SEQ ID NO: 14 with lysine added to the C-terminal, biotin on the lysine side chain (peptide)
peptide: ITPIHWVKK(Biotin)
B2: biotin-tagged peptide: SEQ ID NO: 15 with lysine added to the C-terminal, biotin on the lysine side chain (peptide)
peptide: ILLPLRINK(Biotin)
B3: peptide consisting of the amino-acid sequence represented by SEQ ID NO: 12 (peptide)
peptide: FLGLGLSGVVPT-{PEG (amino-terminated)-cellulose membrane}
modifications: reading uncertain
notes: Spot-synthesised on a cellulose membrane
B4: peptide consisting of the amino-acid sequence represented by SEQ ID NO: 14 (peptide)
peptide: ITPIHWVK-{PEG (amino-terminated)-cellulose membrane}
modifications: reading uncertain
notes: as for B3
B5: peptide consisting of the amino-acid sequence represented by SEQ ID NO: 6 (peptide)
peptide: APLQEKVVFG-{PEG (amino-terminated)-cellulose membrane}
modifications: reading uncertain
notes: as for B3
B6: peptide consisting of the amino-acid sequence represented by SEQ ID NO: 2 (peptide)
peptide: LTLPLQAHHAME-{PEG (amino-terminated)-cellulose membrane}
modifications: reading uncertain
notes: as for B3
B7: peptide consisting of the amino-acid sequence represented by SEQ ID NO: 5 (peptide)
peptide: ILTMLRPNMYF-{PEG (amino-terminated)-cellulose membrane}
modifications: reading uncertain
notes: as for B3
B8: peptide consisting of the amino-acid sequence represented by SEQ ID NO: 7 (peptide)
peptide: IALLIMGS-{PEG (amino-terminated)-cellulose membrane}
modifications: reading uncertain
notes: as for B3
B9: peptide consisting of the amino-acid sequence represented by SEQ ID NO: 3 (peptide)
peptide: LLHGHRPPMP-{PEG (amino-terminated)-cellulose membrane}
modifications: reading uncertain
notes: as for B3
B10: peptide consisting of the amino-acid sequence represented by SEQ ID NO: 13 (peptide)
peptide: GFVKATTV-{PEG (amino-terminated)-cellulose membrane}
modifications: reading uncertain
notes: as for B3
B11: peptide consisting of the amino-acid sequence represented by SEQ ID NO: 1 (peptide)
peptide: VRVLTLPL-{PEG (amino-terminated)-cellulose membrane}
modifications: reading uncertain
notes: as for B3
B12: peptide consisting of the amino-acid sequence represented by SEQ ID NO: 4 (peptide)
peptide: FRIHTETG-{PEG (amino-terminated)-cellulose membrane}
modifications: reading uncertain
notes: as for B3
B13: peptide consisting of the amino-acid sequence represented by SEQ ID NO: 9 (peptide)
peptide: RFATPKHR-{PEG (amino-terminated)-cellulose membrane}
modifications: reading uncertain
notes: as for B3
B14: peptide having the amino-acid sequence represented by SEQ ID NO: 19 (peptide)
peptide: KFATPKHR
B15: peptide consisting of the amino-acid sequence represented by SEQ ID NO: 8 (peptide)
peptide: MGSFVPW-{PEG (amino-terminated)-cellulose membrane}
modifications: reading uncertain
notes: Spot-synthesised on a cellulose membrane; also called MGSFVPW
B16: peptide having the amino-acid sequence represented by SEQ ID NO: 18 (peptide)
peptide: MGSFVPY-{PEG (amino-terminated)-cellulose membrane}
modifications: reading uncertain
notes: also called MGSFVPY
B17: peptide consisting of the amino-acid sequence represented by SEQ ID NO: 15 (peptide)
peptide: ILLPLRIN-{PEG (amino-terminated)-cellulose membrane}
modifications: reading uncertain
notes: Spot-synthesised on a cellulose membrane; also called ILLPLRIN
B18: peptide consisting of the amino-acid sequence represented by SEQ ID NO: 10 (peptide)
peptide: RQTRAGVF-{PEG (amino-terminated)-cellulose membrane}
modifications: reading uncertain
notes: as for B3
B19: peptide consisting of the amino-acid sequence represented by SEQ ID NO: 11 (peptide)
peptide: MHFTIAEG-{PEG (amino-terminated)-cellulose membrane}
modifications: reading uncertain
notes: as for B3

Target: T1, human adiponectin (R&D Systems)
Assay: adiponectin coated on microplate, 1 mM biotin-tagged peptide, HRP-streptavidin, TMB absorbance at 450 nm
Protocol: 5 μg/mL adiponectin (R&D Systems) prepared with PBS was dispensed to wells of a 96-well microplate in an amount of 100 μL per well. Then, the peptides were incubated for 1 hour at 37° C. Adiponectin was thus immobilized in the wells. In order to inhibit nonspecific binding, a blocking solution (Protein-Free Blocking Buffer, PIERCE) was then added to the wells in an amount of 300 μL per well. Then, the peptides were incubated for 2 hours at room temperature. Then, the wells were washed three times with PBST (PBS containing 0.1% (v/v) Tween 20). Then, 1 mM biotin-tagged peptide was added to the wells in an amount of 100 μL per well. Then, the peptides were incubated for 1 hour at room temperature. Then, the wells were washed with PBST again.
Then, HRP-tagged streptavidin (R&D Systems) diluted with 200 parts of the blocking solution (Protein-Free Blocking Buffer, PIERCE) was added to the well in an amount of 100 μL per well. Then, the streptavidin was incubated for 1 hour at room temperature. Then, the wells were washed with PBST. Then, TMB (tetramethylbenzidine) was added to the wells in an amount of 100 μL per well so that they react with each other for 20 minutes. Then, the reaction was stopped by adding 1 M of HCL to the wells in an amount of 100 μL per well. Then, an absorbance at 450 nm was measured by use of a microplate reader (Bio-Rad).

Binding result, binds:
B1
B2

Target: T1, human adiponectin (R&D Systems)
Assay: peptide spot on cellulose membrane, sandwich enzyme immunoassay with HRP-tagged anti-adiponectin antibody, fluorescence
Protocol: First, a cellulose membrane was soaked in ethanol. Then, the cellulose membrane was continuously washed with phosphate buffered saline (PBS) (pH 7.4) so that ethanol contained in the cellulose membrane was replaced with PBS. In order that nonspecific binding is inhibited, the cellulose membrane was incubated overnight in a blocking solution (PBS containing 1% milk powder).
Then, the cellulose membrane was incubated for 1 hour in a blocking solution (PBS containing 1% milk powder) which contains 0.25 μg/mL human adiponectin (R&D Systems). Then, the cellulose membrane was washed with PBST (PBS containing 0.1% (v/v) Tween 20). Then, the cellulose membrane was incubated for 1 hour in a blocking solution containing […] anti-human adiponectin antibody (R&D Systems) which is tagged with HRP, and then washed with PBST five times.
After that, 100 μM fluorescent substrate (Amplex Red (Invitrogen)) containing 1 mM hydrogen peroxide was added to the cellulose membrane, and then they react with each other for 10 minutes. A fluorescent intensity in a synthesis spot was measured in such a manner that an […] wavelength of 595 nm of fluorescence from the fluorescent substrate was measured by a fluorescence imager (GE Healthcare) by exciting, with light of 540 nm, the fluorescent substrate in the synthesis spot. A bond strength of the peptide was worked out from the fluorescent intensity in the synthesis spot.

Binding result, binds:
B3
B4
B5
B6
B7
B8
B9
B10
B11
B12
B13
B14
B15
B16
B17
B18
B19
